Assay [1] concerns the target T1, full-length Sudan GP (GPFL) (Sudan virus (SUDV), UniProt Q7T9D9 33-650).
T1 construct: also called Sudan GPFL; GP(S)FL
T1 sequence: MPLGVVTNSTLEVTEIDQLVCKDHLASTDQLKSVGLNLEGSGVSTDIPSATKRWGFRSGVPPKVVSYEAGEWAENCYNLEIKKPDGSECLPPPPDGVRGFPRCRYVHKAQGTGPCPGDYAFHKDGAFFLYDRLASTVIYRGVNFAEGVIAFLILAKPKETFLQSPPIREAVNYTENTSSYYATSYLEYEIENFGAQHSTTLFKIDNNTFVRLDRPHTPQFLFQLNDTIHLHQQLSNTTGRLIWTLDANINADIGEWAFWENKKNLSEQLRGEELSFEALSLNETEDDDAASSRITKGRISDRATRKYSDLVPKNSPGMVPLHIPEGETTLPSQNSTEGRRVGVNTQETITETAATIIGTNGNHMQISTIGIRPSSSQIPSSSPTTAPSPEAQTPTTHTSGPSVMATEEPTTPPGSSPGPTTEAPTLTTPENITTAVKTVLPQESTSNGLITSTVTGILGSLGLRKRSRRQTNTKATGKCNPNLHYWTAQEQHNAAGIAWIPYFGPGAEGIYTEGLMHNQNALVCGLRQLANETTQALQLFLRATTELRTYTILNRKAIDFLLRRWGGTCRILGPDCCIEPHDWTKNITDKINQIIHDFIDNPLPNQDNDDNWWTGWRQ
Put plainly: BLI, Fab, pH 5.3. A general note: In BLI a coated tip is dipped into the sample, and binding shifts an interference pattern.

The target of assay [2] is T1, full-length Sudan GP (GPFL). The experiment in a line: BLI, Fab, pH 7.4.
The target of assay [3] is T2, EBOV GP on pseudotyped lentiviral vector (Ebola (Zaire) virus (EBOV), UniProt Q05320 33-676).
T2 sequence: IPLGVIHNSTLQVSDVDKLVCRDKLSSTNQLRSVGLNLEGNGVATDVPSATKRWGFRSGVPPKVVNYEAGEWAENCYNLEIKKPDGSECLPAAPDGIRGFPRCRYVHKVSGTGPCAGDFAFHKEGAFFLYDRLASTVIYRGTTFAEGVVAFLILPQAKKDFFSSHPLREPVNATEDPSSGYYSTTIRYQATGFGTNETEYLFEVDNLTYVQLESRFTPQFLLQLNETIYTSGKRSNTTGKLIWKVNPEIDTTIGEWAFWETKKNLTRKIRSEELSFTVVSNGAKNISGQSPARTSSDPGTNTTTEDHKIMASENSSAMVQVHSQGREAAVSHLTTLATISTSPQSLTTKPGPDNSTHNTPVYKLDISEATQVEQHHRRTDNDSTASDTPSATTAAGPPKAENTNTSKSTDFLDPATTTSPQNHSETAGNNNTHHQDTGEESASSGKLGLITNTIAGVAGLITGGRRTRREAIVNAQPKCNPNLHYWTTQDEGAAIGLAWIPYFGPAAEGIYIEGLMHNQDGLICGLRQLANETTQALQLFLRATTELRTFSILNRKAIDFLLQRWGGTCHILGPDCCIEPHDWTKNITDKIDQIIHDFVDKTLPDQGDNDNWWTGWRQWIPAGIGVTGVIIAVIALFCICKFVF
The experiment in a line: cell-based or functional assay.

The target in assay [4] is T3, full-length Zaire GP (GPFL) (Ebola (Zaire) virus (EBOV), UniProt Q05320 33-632).
T3 construct: also called Zaire GPFL; GP(Z)FL
T3 sequence: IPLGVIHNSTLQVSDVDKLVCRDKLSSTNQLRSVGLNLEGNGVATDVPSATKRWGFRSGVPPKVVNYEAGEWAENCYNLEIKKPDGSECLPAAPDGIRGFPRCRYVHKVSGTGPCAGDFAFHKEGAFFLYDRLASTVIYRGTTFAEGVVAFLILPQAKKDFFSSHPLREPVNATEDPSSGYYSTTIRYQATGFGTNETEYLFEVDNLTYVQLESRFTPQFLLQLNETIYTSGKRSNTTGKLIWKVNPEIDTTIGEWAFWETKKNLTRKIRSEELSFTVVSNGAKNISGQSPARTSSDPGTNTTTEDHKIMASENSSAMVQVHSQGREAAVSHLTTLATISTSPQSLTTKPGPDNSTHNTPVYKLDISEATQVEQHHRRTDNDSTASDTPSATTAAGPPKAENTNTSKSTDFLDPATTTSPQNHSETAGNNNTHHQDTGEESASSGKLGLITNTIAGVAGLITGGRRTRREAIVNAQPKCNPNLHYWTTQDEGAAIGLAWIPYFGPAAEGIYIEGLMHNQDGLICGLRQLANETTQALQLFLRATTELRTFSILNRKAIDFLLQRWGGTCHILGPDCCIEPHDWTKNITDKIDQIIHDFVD
Put plainly: ELISA on coated GP. (ELISA stands for enzyme-linked immunosorbent assay.)

For assay [5], the target named is T3, full-length Zaire GP (GPFL). The experiment in a line: ELISA on coated GP. This is another data set of the same source.
Assay [6] deals with T2, EBOV GP on pseudotyped lentiviral vector. Put plainly: cell-based or functional assay. The source holds these as a separate data set.
Assay [7] concerns the target T1, full-length Sudan GP (GPFL). The experiment in a line: ELISA on coated GP.
Assay [8] deals with T4, SUDV GP on pseudotyped lentiviral vector (Sudan virus (SUDV), UniProt Q7T9D9 33-676).
T4 sequence: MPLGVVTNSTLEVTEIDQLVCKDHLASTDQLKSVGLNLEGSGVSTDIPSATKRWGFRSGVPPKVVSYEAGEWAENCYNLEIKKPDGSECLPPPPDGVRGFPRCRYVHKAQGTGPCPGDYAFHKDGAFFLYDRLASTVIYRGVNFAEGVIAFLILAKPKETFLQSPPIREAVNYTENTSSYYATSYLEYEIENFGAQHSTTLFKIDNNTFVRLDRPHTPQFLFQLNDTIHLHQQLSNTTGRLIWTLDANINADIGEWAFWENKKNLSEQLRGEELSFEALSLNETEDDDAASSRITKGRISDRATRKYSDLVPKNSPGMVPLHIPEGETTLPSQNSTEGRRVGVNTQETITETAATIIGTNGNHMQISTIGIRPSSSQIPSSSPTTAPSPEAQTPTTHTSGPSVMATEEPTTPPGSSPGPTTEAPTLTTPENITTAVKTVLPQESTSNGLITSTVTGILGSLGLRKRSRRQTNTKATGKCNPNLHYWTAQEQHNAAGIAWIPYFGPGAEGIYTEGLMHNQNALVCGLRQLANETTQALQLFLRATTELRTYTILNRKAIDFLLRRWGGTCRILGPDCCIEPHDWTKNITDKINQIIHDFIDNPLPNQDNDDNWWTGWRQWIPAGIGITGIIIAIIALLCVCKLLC
Put plainly: cell-based or functional assay.

Assay [9] addresses T1, full-length Sudan GP (GPFL). Put plainly: BLI, Fab, pH 5.3. The source holds these as a separate data set.
For assay [10] the target is unchanged. The experiment in a line: BLI, Fab, pH 7.4. This is another data set of the same source.
In assay [11] the target is T3, full-length Zaire GP (GPFL). The experiment in a line: BLI, Fab, pH 7.4.
The target of assay [12] is T4, SUDV GP on pseudotyped lentiviral vector. The experiment in a line: cell-based or functional assay. This is another data set of the same source.
Assay [13] addresses T1, full-length Sudan GP (GPFL). Put plainly: ELISA on coated GP. This is another data set of the same source.

Where a chain is given by its changes, count along the chain named. Where two headings read alike, the source gives them in different places.

These results are taken from patent publication US20260209316A1 (US Dept. of Health and Human Services, published 2026).

For orientation: Kd means the free concentration of one partner at which half of the binding sites on the other are occupied at equilibrium, for simple one-to-one binding. What is called koff is the first-order rate constant of dissociation. Broadly, the kon is the second-order rate constant of association. Higher therefore signals fast association. As usually defined, the EC50 is the concentration at which the effect is half-maximal. Higher therefore signals a need for much substance.

B1: Fab generated from 291S (Fab, V domains shown)
VH: QVQLQESGPGLVKPSQTLSLTCTVSGGSFSSGFYWSWIRQRPGKGLEWVGYTYYSGSTYYNPSLQSRVTISVDTSKNQFSLNLSSVTAADTAVYHCARADYGGLFDYWGQGILVTVSS
VL: QSVLTQPSSLSASPGASASLTCTLRSGINVGTYRIFWYQQKPGSPPQFLLRYNSDSDKQQGSGVPSRFSGSKDASANAGILLISGLQSEDEADYYCMIWHTSAWVFGGGTKLTVL
Consider B1, for which, in [1], the affinity, expressed as Kd, was 4.27 nM; the koff is 0.00011 s⁻¹; the on-rate constant (kon) was 25700 M⁻¹ s⁻¹. In addition, in [2], the dissociation constant (Kd) was found to be 2.97 nM, the koff was found to be 0.000131 s⁻¹ and the kon turned out to be 44200 M⁻¹ s⁻¹.

B2: Fab generated from 545S (Fab, V domains shown)
VH: QVQLQESGPGLVKPSQTLSLTCTVSGGSISRAGSYWSWIRQHPGKGLEWIGYISYSGSTYYNPSLESRVTMSLDTSKSQFSLKLSSVTAADTAVYYCAREDRSGFYGLDVWGQGTTVTVSS
VL: B1 VL with S17T, G31D, F36Y, F48Y, N53K, Q59H, E89A, T101S, S102G, L115Q
notes: also called 545S Fab
In assay [1], B2 yielded a Kd of 1.97 nM, a koff of 0.000147 s⁻¹ and a kon of 74300 M⁻¹ s⁻¹. In assay [2], the Kd was found to be 1.26 nM, the koff stood at 0.000125 s⁻¹ and the on-rate (kon) came out at 99200 M⁻¹ s⁻¹.

B3: antibody mAb114 (antibody, V domains shown)
VH: EVQLVESGGGLIQPGGSLRLSCAASGFALRMYDMHWVRQTIDKRLEWVSAVGPSGDTYYADSVKGRFAVSRENAKNSLSLQMNSLTAGDTAIYYCVRSDRGVAGLFDSWGQGILVTVSS
VL: DIQMTQSPSSLSASVGDRITITCRASQAFDNYVAWYQQRPGKVPKLLISAASALHAGVPSRFSGSGSGTHFTLTISSLQPEDVATYYCQNYNSAPLTFGGGTKVEIK
In the case of B3, the “IC50, microneutralization of GP-pseudotyped lentiviral vector on HEK293 cells” value (from here on “IC50, microneutralization”) in assay [3] stood at 0.18 µg/mL; in [6] it was 0.152 µg/mL. Besides, the EC50 was determined as 0.0239 µg/mL in assay [4] and 0.02 µg/mL in [5].

B4: antibody 380L (antibody, V domains shown)
VH: EVQLVESGGGLVQPGGSLTLSCAASGFTFGDYVMHWVRQVPGRGLEWLSAVSWSGYTTYSADSVKGRFTISRDNAKNSLYLQMSRLGTADTGLYYCVTLIGAIGIRDSFDAWGRGVLVTVSS
VL: QSVLTQPPSMSGAPGQRVTVSCTGSSSNIGAGNYVQWYQQLPGTAPKVLIYQTDKRPSGISDRFSGSKSGTSASLTISGLQSEDEADYYCQVYDSSLNGWVFGGGTRLTVL
notes: also called 380L mAb; mAb 380L
As to B4, the values for the EC50 in [7] and in [4] were 0.0195 µg/mL and 0.0398 µg/mL, respectively. The “IC50, microneutralization” value in [6] came to 0.756 µg/mL; in [8] it was 0.395 µg/mL.

B5: Fab generated from 380L (Fab, V domains shown)
VH: B4 VH
VL: B4 VL
notes: also called 380L Fab
For the molecule B5, in assay [9], the equilibrium dissociation constant (Kd) was determined as 3.87 nM, the koff turned out to be 0.000326 s⁻¹ and the kon was determined as 84200 M⁻¹ s⁻¹. Moreover, in [10], binding was put at a Kd of 2.85 nM, the off-rate constant (koff) is 0.00029 s⁻¹ and the kon was determined as 101000 M⁻¹ s⁻¹. Moreover, in [11], the affinity, expressed as Kd, was 19.8 nM; the koff stood at 0.00148 s⁻¹; the kon was 63000 M⁻¹ s⁻¹.

B6: antibody 16F6 (antibody, V domains shown)
VH: EVQLVESGGGLVTPGGSLKLSCAASGFAFNYYDMFWVRQNTEKRLEWVAYINSGGGNTYYPDTVKGRFTISRDNAKKTLFLQMSSLRSEDTAMYYCARQLYGNSFFDYWGQGTSLTVSA
VL: DIVMTQSHKFMSTSVGDRVTITCKASQDVTTAVAWYQQKPGHSPKLLIYWASTRHTGVPDRFTGSGSGTDFTLTLNSVQAEDLALYYCQQHYSTPLTFGAGTKLELK
For B6, the “IC50, microneutralization” value in assay [12] was 0.04 µg/mL; in [8], 0.068 µg/mL. The EC50 worked out at 0.068 µg/mL in assay [7] and 0.16 µg/mL in [13].

B7: antibody 316L (antibody, V domains shown)
VH: EERLVESGGGLVQPGGSLRLSCAASGFTFGDYAMHWVRQVPGKSLEWLSGISWSGYTTYSADSVKGRFTISRDNAKNSLYLQMNRLRPEDTGLYYCVTLIGAIGIKDSLDVWGRGVLVTVSS
VL: QSVLTQPPSVSGAPGQRVTVSCSGSSSNIGAGNYVQWYQQLPGTAPKVLIYQTEKRPSGTSDRFSGSKSDTSASLTINGLQSEDEADYYCQVYDSNLNGWVFGGGTRLTVLG
notes: also called 316L mAb; mAb 316L
Turning to B7, the concentration giving a half-maximal response (EC50) worked out at 0.0175 µg/mL in assay [7] and 0.0441 µg/mL in [4]. For the same molecule, the “IC50, microneutralization” value in assay [6] was found to be 1.77 µg/mL; in [8], 0.284 µg/mL.
